These results are taken from the supplement of paper PMC10126150.

± gives the standard deviation of the averaged measurements.
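Note: ATP exposure 15 min at 22 °C before imaging.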

This data set relates to ATP. Briefly: switch fluorescence ratio, 500 uM ATP over buffer (Cy3 cluster intensity, sum of 5 cycles each) (fold (ratio)); higher = stronger signal-on switching upon ATP binding; sequences stand for … in TCGTCGGCAGCGTCAGATGTGTATAAGAGACAGTTTTTTTTTTTTTTTTTTTTTTTTT…TC. The following applies: aptamer strand: ATP DNA aptamer (quencher-CACCTGGGGGAGTATTGCGGAGGAAGG + anchor), 100 nM annealed; ATP concentration: 500 uM. In outline: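 The fluorescence ratio divides summed target-cycle Cy3 intensity by summed buffer-cycle Cy3 intensity for each cluster and is averaged per switch-domain sequence. Cy3-labelled switching-strand clusters on a modified Illumina MiSeq flow-cell were annealed to 100 nM quencher-labelled ATP aptamer, then imaged in selection buffer and again after 15 min with 500 uM ATP at 22 °C. Five such cycles were run, with NaOH stripping and re-annealing between them, and clusters outside 100-1000 RFU were excluded.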
In the case of GTGAATTTGT, the switch fluorescence ratio was 1.09 ± 0.15. AAACGGAGGG: the switch fluorescence ratio was determined as 0.996 ± 0.038. Regarding GCGCCCTGTG, the switch fluorescence ratio is 1.122 ± 0.0062. Next, AATCGGGGGG: 0.974 ± 0.013; GGGTATATGT: 1 ± 0.014; TATTTGTGCG: 0.988 ± 0.035. TTTGAGGGTG: the switch fluorescence ratio came out at 1.07 ± 0.065.

For the sequence AGGGGAATTT, the switch fluorescence ratio was 0.992 ± 0.03. For the sequence ACCACATATC, the switch fluorescence ratio was determined as 1.1 ± 0.06. To TTCGGGGGTA belongs 0.97 ± 0.023; to CCGGGCTGGA, 1.08 ± 0.074.

Regarding ATAAGGGAGT, the switch fluorescence ratio is 0.9909 ± 0.0033. Next, TACGCCTGCA: 1.059 ± 0.0084.

ACGGTGTGGC: the switch fluorescence ratio is 1.03 ± 0.072. Next, CTTGTGTGTC: 0.999 ± 0.015; TTGAGTTTTT: 0.987 ± 0.024. Next, CGCGATAGTA: 1.27 ± 0.026; CTAGTCTGAA: 0.982 ± 0.031.

As to TTGGAAGCTT, the switch fluorescence ratio came to 1.23 ± 0.22. In the case of AGCAACATAA, the switch fluorescence ratio turned out to be 1.13 ± 0.022.

TTGGCGGGTG: the switch fluorescence ratio was found to be 1.04 ± 0.041.

For TTTCGGTTCT, the switch fluorescence ratio is 0.991 ± 0.012. To TCAGTAATCT belongs 1.01 ± 0.058; to TTTTGCTCAA, 0.996 ± 0.011. For the sequence CGGATATGGC, the switch fluorescence ratio was found to be 1.03 ± 0.1.

Consider TACGATATTT, for which the switch fluorescence ratio worked out at 1.099 ± 0.0068.

Turning to CACGAGGTTG, the switch fluorescence ratio was 0.992 ± 0.02. To ATGAAAAAAA belongs 0.976 ± 0.12; to AGGGTAGAGC, 1.09 ± 0.15.

As to TGGGATATAT, the switch fluorescence ratio was 0.954 ± 0.034.

Regarding TTGGGTAAGC, the switch fluorescence ratio was 0.994 ± 0.066. For ATCGGAGGGA, the switch fluorescence ratio turned out to be 0.986 ± 0.028. To CCCCCGTTCC belongs 1.72 ± 0.2; to GTGTTTCCTT, 1.02 ± 0.036.

TTATGAGCGT: the switch fluorescence ratio is 1 ± 0.014. With AAAGGGGTAG, the switch fluorescence ratio stood at 0.9975 ± 0.0069. With ATTATTTGCC, the switch fluorescence ratio worked out at 0.99 ± 0.01. Next, GATTTAACGA: 0.985 ± 0.014; TGCGATTTTT: 1.01 ± 0.042; TGGGTTTAGG: 1.02 ± 0.025. Next, AAATAAAATG: 0.932 ± 0.11; TTTTGCCCGG: 1.01 ± 0.033. As for TTTAAACCCT, the switch fluorescence ratio worked out at 1.03 ± 0.024. Turning to GGGGTGAGCA, the switch fluorescence ratio was 0.976 ± 0.029. Next, GGCCGTGAGG: 1.01 ± 0.0098; TGGGATTAGG: 0.969 ± 0.03. Next, CCAAAAAGTG: 1.03 ± 0.031; TGTAAAGGGA: 0.998 ± 0.024; TGTCGACTGT: 0.987 ± 0.042. To TCTCTTTGTG belongs 1.02 ± 0.024. Turning to CTAGACCAGG, the switch fluorescence ratio was found to be 1.01 ± 0.014. With CTGTAACGTT, the switch fluorescence ratio worked out at 1.015 ± 0.0015. To GGTAGGGGTA belongs 1.03 ± 0.084; to AGGGAACGAT, 0.9693 ± 0.0022; to GACCCGCCAA, 4.89 ± 1. Turning to GGGATCATTA, the switch fluorescence ratio was 0.983 ± 0.02.

GGGATATGTT: the switch fluorescence ratio turned out to be 0.9921 ± 0.0071. As for AAGGTAGAGC, the switch fluorescence ratio came out at 1.03 ± 0.034. To AAGAAATGGT belongs 1.05 ± 0.043; to CCAGCCTAGT, 0.98408 ± 0.0008; to AATTTTATGT, 1.01 ± 0.011. ACAGGTTGAA: the switch fluorescence ratio turned out to be 0.996 ± 0.036.

Take GGGGGTAGAG: the switch fluorescence ratio turned out to be 0.988 ± 0.015. As to TGGGATCCAT, the switch fluorescence ratio amounted to 0.972 ± 0.015. Next, TGAGGGTTTT: 0.997 ± 0.02; TTTTATTTGC: 1.01 ± 0.024; TATCAAAGAT: 1 ± 0.02.

For the sequence GCGAGGGTCT, the switch fluorescence ratio was determined as 1.01 ± 0.027.

On to GTTTGTTTGT, for which the switch fluorescence ratio amounted to 0.995 ± 0.019. To CGAGATTGGT belongs 0.973 ± 0.016; to TAAAGGCGAG, 1.02 ± 0.027. To TGAAAGAACT belongs 1.16 ± 0.21; to ATTGCGCTTC, 1.063 ± 0.0095; to GTTATTGGGA, 0.99 ± 0.051. Next, GGGGCAGCCA: 1.03 ± 0.038; TTGGGAAACT: 1.15 ± 0.24; GGTTCAAGTT: 0.9816 ± 0.0095. Regarding ATGGCGGCGG, the switch fluorescence ratio came out at 1.01 ± 0.014. CGCGTATTGT: the switch fluorescence ratio was found to be 0.999 ± 0.016.

On to ATCATTTGGG, for which the switch fluorescence ratio came to 0.997 ± 0.039. For ATATTGTTTG, the switch fluorescence ratio was 1.01 ± 0.1. Next, TCTATTGCTG: 0.995 ± 0.02. Take CCTGTGTAGC: the switch fluorescence ratio was 1.092 ± 0.0031.

On to GGTATAGGGG, for which the switch fluorescence ratio worked out at 0.995 ± 0.054. Next, TTGGACGGGA: 1.29 ± 0.47; GGGGCATGGT: 1.01 ± 0.018. For the sequence TGGCTTACAT, the switch fluorescence ratio came to 1.0268 ± 0.00039. To TCGAGGGGTT belongs 0.993 ± 0.011.

With TGCGACTCGG, the switch fluorescence ratio turned out to be 0.9988 ± 0.0056. Next, AAAAATGTTG: 1 ± 0.053; GATGCACCGA: 1.06 ± 0.036. To CGGCTATTAA belongs 1.044 ± 0.0086; to GTTATGAGTT, 0.975 ± 0.029; to GATCCTAACG, 1.04 ± 0.048. Regarding TGAAGACTGT, the switch fluorescence ratio worked out at 0.988 ± 0.045. Next, AGGAGAATGT: 1.02 ± 0.011; GGAGTATTGG: 1.02 ± 0.022.

With AGTGGAGGGC, the switch fluorescence ratio was determined as 1.03 ± 0.036.

Consider GGGAGGATTT, for which the switch fluorescence ratio was determined as 0.987 ± 0.013. Take TGGGGTTCTT: the switch fluorescence ratio was determined as 0.993 ± 0.034. As for GCTTACGTCA, the switch fluorescence ratio is 1.05 ± 0.086. For the sequence TTAATGTCCT, the switch fluorescence ratio was 1 ± 0.02. Next, CCCGGAGGCA: 1.057 ± 0.004. To TATAAGAGCC belongs 0.984 ± 0.043; to GGGTATATTT, 1 ± 0.065; to TATCACTAGG, 1.02 ± 0.0022. Next, TTGCGGACCA: 0.996 ± 0.043; ACTATGTGTA: 0.989 ± 0.014. For the sequence AGGGACGGAG, the switch fluorescence ratio came out at 1.01 ± 0.034. To CTACTCTCGC belongs 1.15 ± 0.019. To ATCGTAATGG belongs 1.04 ± 0.038. Next, TGAATAGGAG: 1.011 ± 0.0027. In the case of TTTGCATGAT, the switch fluorescence ratio stood at 0.982 ± 0.017. As for AAGATTTGAC, the switch fluorescence ratio is 1.003 ± 0.0085. Next, GGTGGGGAAT: 0.979 ± 0.022.

Regarding TATGCGTTGC, the switch fluorescence ratio was determined as 1.02 ± 0.023. Regarding CTTGTGACAC, the switch fluorescence ratio was 1.02 ± 0.033. To CTGATCAGCA belongs 1.03 ± 0.04. To ACTATGTCTT belongs 1.005 ± 0.0049; to TGCCGTTTTT, 1.02 ± 0.069.
